Experiments:
[1] = biological target: cell surface human CD40 on HEK-CD40 cells (human) (UniProt P25942); assay: flow cytometry on HEK-CD40 cells; mAb at 0.06 ug/ml
[2] = biological target: cell surface human CD40 on HEK-CD40 cells (human) (UniProt P25942); assay: flow cytometry on HEK-CD40 cells; mAb at 12 ug/ml
[3] = biological target: cell surface human CD40 on HEK-CD40 cells (human) (UniProt P25942); assay: flow cytometry on HEK-CD40 cells; mAb at 0.56 ug/ml
[4] = biological target: cell surface human CD40 on HEK-CD40 cells (human) (UniProt P25942); assay: flow cytometry on HEK-CD40 cells; mAb at 5 ug/ml
[5] = biological target: cell surface human CD40 on HEK-CD40 cells (human) (UniProt P25942); assay: flow cytometry on HEK-CD40 cells; mAb at 0.007 ug/ml
[6] = biological target: cell surface human CD40 on HEK-CD40 cells (human) (UniProt P25942); assay: flow cytometry on HEK-CD40 cells; mAb at 0.02 ug/ml
[7] = biological target: cell surface human CD40 on HEK-CD40 cells (human) (UniProt P25942); assay: flow cytometry on HEK-CD40 cells; mAb at 1.7 ug/ml
[8] = biological target: cell surface human CD40 on HEK-CD40 cells (human) (UniProt P25942); assay: flow cytometry on HEK-CD40 cells; mAb at 0.78 ug/ml (so in the source)
[9] = biological target: cell surface human CD40 on HEK-CD40 cells (human) (UniProt P25942); assay: flow cytometry, titration on HEK-CD40 cells, CD40 MFI, anti-human IgG secondary antibody
[10] = biological target: CD40 on Ramos-Blue cells (human)

Chain of cell surface human CD40 on HEK-CD40 cells (human) (P25942 21-277): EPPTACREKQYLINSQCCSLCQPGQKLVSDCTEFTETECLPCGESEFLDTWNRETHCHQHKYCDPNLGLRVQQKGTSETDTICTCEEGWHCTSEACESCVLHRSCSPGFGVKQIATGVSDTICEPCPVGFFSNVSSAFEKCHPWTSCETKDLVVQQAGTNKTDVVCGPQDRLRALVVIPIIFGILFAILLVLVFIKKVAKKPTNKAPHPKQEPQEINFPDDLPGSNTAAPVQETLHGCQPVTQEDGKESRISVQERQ
Chain of CP-870,893, IgG2 isotype fully human anti-CD40 mAb (antibody) (VH): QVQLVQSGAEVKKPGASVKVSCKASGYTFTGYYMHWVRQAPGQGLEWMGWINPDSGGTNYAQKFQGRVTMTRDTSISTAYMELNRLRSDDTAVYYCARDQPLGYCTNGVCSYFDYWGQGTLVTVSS
Chain of CP-870,893, IgG2 isotype fully human anti-CD40 mAb (antibody) (VL): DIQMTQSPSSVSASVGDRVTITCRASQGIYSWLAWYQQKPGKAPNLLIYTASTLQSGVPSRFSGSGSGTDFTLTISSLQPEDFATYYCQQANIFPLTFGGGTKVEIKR

| MFI [1] | MFI [2] | MFI [3] | MFI [4] | MFI [5] | MFI [6] | MFI [7] | MFI [8] | EC50 [9] [µg/mL] | EC50, w/o PDL1 (Ramos-Blue NFkB-SEAP reporter, OD630, HEK-control cells added) [10] [nM] | EC50, with PDL1 (Ramos-Blue NFkB-SEAP reporter, OD630, HEK-PDL1 cells added) [10] [nM] | Substance |
| --- | --- | --- | --- | --- | --- | --- | --- | --- | --- | --- | --- |
| 1530 | 23700 | 6790 | 20900 | 271 | 635 | 14100 | 3670 | 1.58 | 0.15 | 0.12 | CP-870,893, IgG2 isotype fully human anti-CD40 mAb (antibody) |
| 40.2 | 73.7 | 30.7 | 112 | 28.3 | 40.1 | 61.3 | 32.3 |  |  |  | Human IgG1 isotype control (Bioxell, Catalog BE 0297) (antibody) |
| 4590 | 24700 | 18200 | 24500 | 1150 | 2360 | 23300 | 9840 | 0.28 | 2.6 | 2.67 | APX005m, humanized anti-CD40 mAb, IgG1 isotype with S267E mutation (antibody) |
